Assay [1] addresses KEAP1 (wild-type full-length), His-tagged (human) (UniProt Q14145). Description: AlphaScreen; 307.2 nM FLAG-NRF2, 150 nM His-KEAP1; Rep 2; control for I28V. For orientation: In Alpha technology, singlet oxygen from a donor bead excites a nearby acceptor bead.
Assay [2] has the same target. Description: AlphaScreen; 1228.8 nM FLAG-NRF2, 150 nM His-KEAP1; signal against NRF2 only; control for I86V.
For assay [3] the target is unchanged. Description: AlphaScreen; NRF2 wt isoform 1 9.6 nM, KEAP1 150 nM; set as the 100 % reference for I86V.
Assay [4] shares this target. The assay is described as follows: AlphaScreen; FLAG-NRF2 wt isoform 1 2.4 nM, His-KEAP1 150 nM; Rep 2; positive control for Q75R.
Assay [5] shares this target. The assay is described as follows: AlphaScreen; FLAG-NRF2 wt isoform 1 76.8 nM, His-KEAP1 150 nM; Rep 1; positive control for Q75R.
Assay [6] has the same target. The assay is described as follows: AlphaScreen; 9.6 nM FLAG-NRF2, 150 nM His-KEAP1 (same value as in Table 26).
The target is the same in assay [7]. Description: AlphaScreen; 76.8 nM FLAG-NRF2, 150 nM His-KEAP1; signal against NRF2 only; control for I86V.
For assay [8] the target is unchanged. The assay is described as follows: AlphaScreen; FLAG-NRF2 wt isoform 1 307.2 nM, His-KEAP1 150 nM; Rep 1; positive control for Q75R.
The target is the same in assay [9]. Description: AlphaScreen; 4.8 nM FLAG-NRF2, 150 nM His-KEAP1; signal against NRF2 only; control for I86V.
The target is the same in assay [10]. Description: AlphaScreen; FLAG-NRF2 wt isoform 1 9.6 nM, His-KEAP1 150 nM; Rep 1; positive control for Q75R.
Assay [11] has the same target. Description: AlphaScreen; NRF2 wt isoform 1 4.8 nM, KEAP1 150 nM; signal against NRF2-only control; control for Q75R.
For assay [12] the target is unchanged. Description: AlphaScreen; 307.2 nM FLAG-NRF2, 150 nM His-KEAP1; signal against NRF2 only; control for I86V.
Assay [13] has the same target. The assay is described as follows: AlphaScreen; 153.6 nM FLAG-NRF2, 150 nM His-KEAP1; signal against NRF2 only; control for I86V.
The target is the same in assay [14]. Description: AlphaScreen; 76.8 nM FLAG-NRF2, 150 nM His-KEAP1; Rep 3; control for I86V.
Assay [15] shares this target. Description: AlphaScreen; NRF2 Q75R 19.2 nM, KEAP1 150 nM; signal against NRF2-only control.
For assay [16] the target is unchanged. Description: AlphaScreen; NRF2 Q75R 2.4 nM, KEAP1 150 nM; signal against NRF2-only control.
The target is the same in assay [17]. Description: AlphaScreen; FLAG-NRF2 I86V 614.4 nM, His-KEAP1 150 nM; Rep 2.
For assay [18] the target is unchanged. The assay is described as follows: AlphaScreen; FLAG-NRF2 I86V 153.6 nM, His-KEAP1 150 nM; Rep 2.
The target is the same in assay [19]. The assay is described as follows: AlphaScreen; NRF2 I86V 38.4 nM, KEAP1 150 nM; relative to wild-type NRF2 isoform 1 (100 %).
Assay [20] has the same target. Description: AlphaScreen; FLAG-NRF2 I86V 153.6 nM, His-KEAP1 150 nM; Rep 3.
The target is the same in assay [21]. Description: AlphaScreen; FLAG-NRF2 I86V 76.8 nM, His-KEAP1 150 nM; Rep 1.
For assay [22] the target is unchanged. Description: AlphaScreen; 614.4 nM FLAG-NRF2, 150 nM His-KEAP1; signal against NRF2 only.
For assay [23] the target is unchanged. The assay is described as follows: AlphaScreen; 1228.8 nM FLAG-NRF2, 150 nM His-KEAP1; signal against NRF2 only.
Assay [24] shares this target. Description: AlphaScreen; 19.2 nM FLAG-NRF2, 150 nM His-KEAP1; Repeat 2 (same value as in Table 27).
Assay [25] shares this target. The assay is described as follows: AlphaScreen; 9.6 nM FLAG-NRF2, 150 nM His-KEAP1 (same value as in Table 27).
Assay [26] shares this target. The assay is described as follows: AlphaScreen; 38.4 nM FLAG-NRF2, 150 nM His-KEAP1 (same value as in Table 27).
The target is the same in assay [27]. The assay is described as follows: AlphaScreen; 307.2 nM FLAG-NRF2, 150 nM His-KEAP1; Rep 2.

Residue numbers refer to the chain shown, from its start. In names and notes the source's numbering stands.

KEAP1 (wild-type full-length), His-tagged (human), sequence (Q14145 2-624 limits assumed): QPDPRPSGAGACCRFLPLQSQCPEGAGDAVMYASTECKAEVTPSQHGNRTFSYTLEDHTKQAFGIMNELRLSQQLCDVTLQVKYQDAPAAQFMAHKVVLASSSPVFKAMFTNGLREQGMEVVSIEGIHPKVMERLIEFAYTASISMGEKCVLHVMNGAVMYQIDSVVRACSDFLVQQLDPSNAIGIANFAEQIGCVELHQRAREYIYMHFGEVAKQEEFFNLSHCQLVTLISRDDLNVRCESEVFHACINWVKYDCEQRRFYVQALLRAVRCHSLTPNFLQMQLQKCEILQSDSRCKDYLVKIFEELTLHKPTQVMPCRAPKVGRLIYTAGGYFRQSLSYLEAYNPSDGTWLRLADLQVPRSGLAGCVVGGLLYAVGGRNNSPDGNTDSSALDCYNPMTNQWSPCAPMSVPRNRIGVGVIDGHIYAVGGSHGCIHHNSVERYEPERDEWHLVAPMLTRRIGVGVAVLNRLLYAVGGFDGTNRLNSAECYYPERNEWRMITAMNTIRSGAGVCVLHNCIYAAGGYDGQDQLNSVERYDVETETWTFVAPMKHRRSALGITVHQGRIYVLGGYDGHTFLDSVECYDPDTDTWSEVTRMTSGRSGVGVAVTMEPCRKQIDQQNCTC

B1: NRF2 isoform 1 (wild-type full-length), FLAG-tagged (protein)
chain: MMDLELPPPGLPSQQDMDLIDILWRQDIDLGVSREVFDFSQRRKEYELEKQKKLEKERQEQLQKEQEKAFFAQLQLDEETGEFLPIQPAQHIQSETSGSANYSQVAHIPKSDALYFDDCMQLLAQTFPFVDDNEVSSATFQSLVPDIPGHIESPVFIATNQAQSPETSVAQVAPVDLDGMQQDIEQVWEELLSIPELQCLNIENDKLVETTMVPSPEAKLTEVDNYHFYSSIPSMEKEVGNCSPHFLNAFEDSFSSILSTEDPNQLTVNSLNSDATVNTDFGDEFYSAFIAEPSISNSMPSPATLSHSLSELLNGPIDVSDLSLCKAFNQNHPESTAEFNDSDSGISLNTSPSVASPEHSVESSSYGDTLLGLSDSEVEELDSAPGSVKQNGPKTPVHSSGDMVQPLSPSQGQSTHVHDAQCENTPEKELPVSPGHRKTPFTKDKHSSRLEAHLTRDELRAKALHIPFPVEKIINLPVVDFNEMMSKEQFNEAQLALIRDIRRRGKNKVAAQNCRKRKLENIVELEQDLDHLKDEKEKLLKEKGENDKSLHLLKKQLSTLYLEVFSMLRDEDGKPYSPSEYSLQQTRDGNVFLVPKSKKPDVKKN
Take B1: the results for the A-counts in assay [1] and in assay [14] were 1780 A-counts and 2880 A-counts, respectively. Moreover, the S/N in assay [2] was determined as 1; in assay [6], 4.1; in [7], 2.4; in assay [9], 2.8; in assay [11], 2.5; in assay [12], 1.5. The molecule also yielded a S/N in [13] of 2. The molecule also showed a Binding Percentage in assay [3] of 100%. Also, the A-counts (NRF2 plus KEAP1) in assay [4] was determined as 429 A-counts; in [5], 1490 A-counts; in assay [8], 1560 A-counts; in assay [10], 1024 A-counts.

B2: NRF2 isoform 1 (Q75R full-length), FLAG-tagged (protein)
chain: B1 chain with Q75R
As to B2, the figures for the S/N in [15] and in [16] were 2.5 and 2, respectively.

B3: NRF2 isoform 1 (I86V full-length), FLAG-tagged (protein)
chain: B1 chain with I86V
For B3, the A-counts (NRF2 plus KEAP1) in [17] stood at 1970 A-counts; in assay [18], 2580 A-counts; in [20] it was 2500 A-counts; in assay [21] it was 2810 A-counts. Besides, the Binding Percentage in [19] was 93.7%.

B4: NRF2 isoform 1 (I28V full-length), FLAG-tagged (protein)
chain: B1 chain with I28V
Regarding B4, the S/N in assay [22] was determined as 1; in [23] it was 0.9; in assay [25] it was 3.4; in assay [26] it was 2.7. Besides, the A-counts in assay [24] came to 1700 A-counts; in [27], 1260 A-counts.

Values taken from patent US20250352667A1.
